Source: PMC9953004, “Scandium-44 Radiolabeled Peptide and Peptidomimetic Conjugates Targeting Neuropilin-1 Co-Receptor as Potential Tools for Cancer Diagnosis and Anti-Angiogenic Therapy” (Biomedicines, 2023)
Primed or numbered codes have the meaning given here. Where no end group is shown, it is not given here. Side-chain parts run from the residue outwards. [ ]: non-standard residue; d: D form. The star is where a group is joined. DOTA″ = DOTA chelator, carrying Sc, O=C([O-])CN1CCN(CC(=O)[O-])CCN(CC(=O)*)CCN(CC(=O)[O-])CC1.[Sc+3]; DOTA′ = DOTA-Sc chelate, O=C([O-])CN1CCN(CC(=O)[O-])CCN(CC(=O)*)CCN(CC(=O)[O-])CC1.[Sc+3]; hArg = N=C(N)NCCCC[C@H](N)C(=O)O; Dab = NCC[C@H](N)C(=O)O; Ahx = NCCCCCC(=O)O

T1: Recombinant human NRP-1 (neuropilin-1 co-receptor) (human, UniProt O14786 22-856)
T1 construct: neuropilin-1, human, recombinant; It is probably a soluble extracellular construct (surmise); source: bought: BioLegend
T1 sequence (looked up): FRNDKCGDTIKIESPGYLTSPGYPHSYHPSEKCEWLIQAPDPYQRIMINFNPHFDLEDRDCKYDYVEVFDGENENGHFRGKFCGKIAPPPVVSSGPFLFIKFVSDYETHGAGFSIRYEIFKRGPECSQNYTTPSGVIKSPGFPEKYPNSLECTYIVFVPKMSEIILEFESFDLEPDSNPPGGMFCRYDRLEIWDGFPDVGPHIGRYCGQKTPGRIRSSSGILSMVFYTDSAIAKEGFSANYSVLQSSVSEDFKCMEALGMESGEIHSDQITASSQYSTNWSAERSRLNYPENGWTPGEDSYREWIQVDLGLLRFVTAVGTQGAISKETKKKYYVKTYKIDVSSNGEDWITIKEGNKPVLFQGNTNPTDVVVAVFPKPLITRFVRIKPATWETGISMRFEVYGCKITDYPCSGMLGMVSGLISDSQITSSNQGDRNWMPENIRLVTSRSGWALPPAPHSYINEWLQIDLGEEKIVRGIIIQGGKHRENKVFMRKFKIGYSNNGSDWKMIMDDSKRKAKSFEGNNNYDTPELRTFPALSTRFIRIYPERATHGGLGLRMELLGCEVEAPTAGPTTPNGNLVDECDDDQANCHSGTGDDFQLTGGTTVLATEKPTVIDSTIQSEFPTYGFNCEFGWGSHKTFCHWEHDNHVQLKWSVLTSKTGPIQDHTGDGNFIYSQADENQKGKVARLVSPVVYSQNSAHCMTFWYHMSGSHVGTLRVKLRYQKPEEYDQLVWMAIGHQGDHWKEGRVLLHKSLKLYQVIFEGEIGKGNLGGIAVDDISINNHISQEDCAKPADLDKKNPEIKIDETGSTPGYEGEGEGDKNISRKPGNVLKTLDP

B1: Ala-Thr-Trp-Leu-Pro-Pro-Arg (A7R) heptapeptide (peptide)
peptide: ATWLPPR
notes: found by a mutated phage library screening; free C-terminal carboxyl group; also called ^LA7R; source: synthetic peptide (SPPS, Fmoc chemistry)
B2: Sc-DOTA-Ahx-A7R (peptide)
peptide: {DOTA″-Ahx}-ATWLPPR
modifications: also: Sc chelated by DOTA
notes: A7R peptide with linker and chelator on the N-terminus; also called Sc-1; source: synthetic peptide conjugate (SPPS), complexed with ScCl3
B3: Lys(DOTA-Sc)-A7R (peptide)
peptide: H-K(DOTA′)ATWLPPR
modifications: also: DOTA chelating Sc
notes: Lys(DOTA)-Ala-Thr-Trp-Leu-Pro-Pro-Arg; the Lys is a linker before A7R; also called Sc-1bis; source: bought: CASLO ApS (conjugate 1bis), complexed with ScCl3

Target: T1, Recombinant human NRP-1 (neuropilin-1 …)
Test: ELISA; competitive; recombinant human NRP-1 coated on a 96-well plate (200 ng/well, overnight, 4 °C), blocked with 0.5% BSA in PBS; 50 µL compound in PBS (100, 50, 25, 12.5, 6.75 µM) plus 50 µL (400 ng/mL) human (bt)-VEGF-A165 in PBS with 4 µg/mL heparin; 2 h at room temperature; streptavidin-HRP, chemiluminescence; IC50 by nonlinear regression, mean ± SD of three experiments
Conditions: both partners purified

**Q.** B1 was tested. Which IC50 did it give?
**A.** 17.5 µM

**Q.** For B2, which IC50 is on record?
**A.** 22.5 µM

**Q.** Which IC50 does the source give for B3 here?
**A.** 18.1 µM

**Q.** For K(hArg)[Dab]PR [branched peptidomimetic Lys(hArg)-Dab-Pro-Arg (K4R)], which IC50 is on record?
**A.** 4.83 µM

**Q.** K(hArg)[Dab]([Ahx-DOTA″])PR (also: Sc chelated by DOTA) [Lys(hArg)-Dab(Ahx-DOTA-Sc)-Pro-Arg] was tested. Which IC50 did it give?
**A.** 17.9 µM

**Q.** For [dR][dP][dP][dL][dW][dT][dA] (also called ^DR7A) [retro-inverso isomer of A7R (DArg-DPro-DPro-DLeu-DTrp-DThr-DAla)], which IC50 is on record?
**A.** > 100 µM
